Where no end group is shown, it is not given here.
Biological target: human angiotensin converting enzyme 2 (ACE2), recombinant (human, UniProt Q9BYF1 18-740)
Experiment: BLI

Chain of human angiotensin converting enzyme 2 (ACE2), recombinant (Q9BYF1 18-740): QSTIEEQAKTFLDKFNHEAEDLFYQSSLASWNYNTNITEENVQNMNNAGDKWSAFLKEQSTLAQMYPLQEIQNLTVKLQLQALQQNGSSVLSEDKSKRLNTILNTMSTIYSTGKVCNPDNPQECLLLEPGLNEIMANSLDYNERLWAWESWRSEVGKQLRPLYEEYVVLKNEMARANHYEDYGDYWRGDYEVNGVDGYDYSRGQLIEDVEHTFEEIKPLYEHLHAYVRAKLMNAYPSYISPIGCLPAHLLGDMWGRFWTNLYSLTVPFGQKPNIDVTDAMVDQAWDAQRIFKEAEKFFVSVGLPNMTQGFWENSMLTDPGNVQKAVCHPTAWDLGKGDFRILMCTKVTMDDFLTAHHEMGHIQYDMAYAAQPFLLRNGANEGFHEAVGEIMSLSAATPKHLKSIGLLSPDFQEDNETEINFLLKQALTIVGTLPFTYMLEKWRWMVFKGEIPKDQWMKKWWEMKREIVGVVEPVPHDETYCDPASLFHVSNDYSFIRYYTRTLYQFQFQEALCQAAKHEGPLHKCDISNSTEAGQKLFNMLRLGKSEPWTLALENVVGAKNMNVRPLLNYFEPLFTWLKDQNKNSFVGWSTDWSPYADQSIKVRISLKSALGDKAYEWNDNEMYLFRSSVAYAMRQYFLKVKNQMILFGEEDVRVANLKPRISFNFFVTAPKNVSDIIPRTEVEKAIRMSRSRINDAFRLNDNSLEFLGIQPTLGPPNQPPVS

Binder | Kd
LHFAKWNHVWSWK-NH2 (also: biotinylated, position not given here) [ACE2-binding peptide ABP C2] | 57 nM
LKVKYMWDYLFGK-NH2 (also: biotinylated, position not given here) [ACE2-binding peptide ABP C4] | 58 nM
LFRGYFAAMNNLK-NH2 (also: biotinylated, position not given here) [ACE2-binding peptide ABP C1] | 66 nM

— publication PMC9814530 (2022)
